B1: PS3B1354 (bispecific antibody, human IgG1, lambda, L234A L235A)
heavy 1: QVQLQQSGPRLVRPSQTLSLTCAISGDSVFNNNAAWSWIRQSPSRGLEWLGRTYYRSKWLYDYAVSVKSRITVNPDTSRNQFTLQLNSVTPEDTALYYCARGYSSSFDYWGQGTLVTVSSASTKGPSVFPLAPSSKSTSGGTAALGCLVKDYFPEPVTVSWNSGALTSGVHTFPAVLQSSGLYSLSSVVTVPSSSLGTQTYICNVNHKPSNTKVDKKVEPKSCDKTHTCPPCPAPEAAGGPSVFLFPPKPKDTLMISRTPEVTCVVVSVSHEDPEVKFNWYVDGVEVHNAKTKPREEQYNSTYRVVSVLTVLHQDWLNGKEYKCKVSNKALPAPIEKTISKAKGQPREPQVYTLPPSREEMTKNQVSLTCLVKGFYPSDIAVEWESNGQPENNYKTTPPVLDSDGSFLLYSKLTVDKSRWQQGNVFSCSVMHEALHNHYTQKSLSLSPGK
light 1: QSALTQPASVSGSPGQSITISCTGTSSNIGTYKFVSWYQQHPDKAPKVLLYEVSKRPSGVSSRFSGSKSGNTASLTISGLQAEDQADYHCVSYAGSGTLLFGGGTKLTVLGQPKAAPSVTLFPPSSEELQANKATLVCLISDFYPGAVTVAWKADSSPVKAGVETTTPSKQSNNKYAASSYLSLTPEQWKSHRSYSCQVTHEGSTVEKTVAPTECS
heavy 2: EVQLVESGGGLVQPGGSLRLSCAASGFTFSSYAMSWVRQAPGKGLEWVSAISGGSGSTYYADSVKGRFTISRDNSKNTLYLQMNSLRAEDSAVYYCAKDGVGATPYYFDYWGQGTLVTVSSASTKGPSVFPLAPSSKSTSGGTAALGCLVKDYFPEPVTVSWNSGALTSGVHTFPAVLQSSGLYSLSSVVTVPSSSLGTQTYICNVNHKPSNTKVDKKVEPKSCDKTHTCPPCPAPEAAGGPSVFLFPPKPKDTLMISRTPEVTCVVVSVSHEDPEVKFNWYVDGVEVHNAKTKPREEQYNSTYRVVSVLTVLHQDWLNGKEYKCKVSNKALPAPIEKTISKAKGQPREPQVYTLPPSREEMTKNQVSLTCLVKGFYPSDIAVEWESNGQPENNYKTTPPVLDSDGSFFLYSRLTVDKSRWQQGNVFSCSVMHEALHNHYTQKSLSLSPGK
light 2: QSVLTQPPSVSAAPGQKVTISCSGSSSNIGNNYVSWYQQLPGTAPKLLIYDNNKRPSGIPDRFSGSKSGTSATLGITGLQTGDEADYYCGTWDSSLSAYVFGTGTKVTVLGQPKAAPSVTLFPPSSEELQANKATLVCLISDFYPGAVTVAWKADSSPVKAGVETTTPSKQSNNKYAASSYLSLTPEQWKSHRSYSCQVTHEGSTVEKTVAPTECS
B2: PS3B1355 (bispecific antibody, human IgG1, lambda, L234A L235A)
heavy 1: QVQLQQSGPRLVRPSQTLSLTCAISGDSVFNNNAAWSWIRQSPSRGLEWLGRTYYRSKWLYDYAVSVKSRITVNPDTSRNQFTLQLNSVTPEDTALYYCARGYSSSFDYWGQGTLVTVSSASTKGPSVFPLAPSSKSTSGGTAALGCLVKDYFPEPVTVSWNSGALTSGVHTFPAVLQSSGLYSLSSVVTVPSSSLGTQTYICNVNHKPSNTKVDKKVEPKSCDKTHTCPPCPAPEAAGGPSVFLFPPKPKDTLMISRTPEVTCVVVSVSHEDPEVKFNWYVDGVEVHNAKTKPREEQYNSTYRVVSVLTVLHQDWLNGKEYKCKVSNKALPAPIEKTISKAKGQPREPQVYTLPPSREEMTKNQVSLTCLVKGFYPSDIAVEWESNGQPENNYKTTPPVLDSDGSFLLYSKLTVDKSRWQQGNVFSCSVMHEALHNHYTQKSLSLSPGK
light 1: QSALTQPASVSGSPGQSITISCTGTSSNIGTYKFVSWYQQHPDKAPKVLLYEVSKRPSGVSSRFSGSKSGNTASLTISGLQAEDQADYHCVSYAGSGTLLFGGGTKLTVLGQPKAAPSVTLFPPSSEELQANKATLVCLISDFYPGAVTVAWKADSSPVKAGVETTTPSKQSNNKYAASSYLSLTPEQWKSHRSYSCQVTHEGSTVEKTVAPTECS
heavy 2: EVQLVESGGGLVQPGGSLRLSCAASGFTFSSYAMSWVRQAPGKGLEWVSAISGGSGSTYYADSVKGRFTISRDNSKNTLYLQMNSLRAEDSAVYYCAKDGVGATPYYFDYWGQGTLVTVSSASTKGPSVFPLAPSSKSTSGGTAALGCLVKDYFPEPVTVSWNSGALTSGVHTFPAVLQSSGLYSLSSVVTVPSSSLGTQTYICNVNHKPSNTKVDKKVEPKSCDKTHTCPPCPAPEAAGGPSVFLFPPKPKDTLMISRTPEVTCVVVSVSHEDPEVKFNWYVDGVEVHNAKTKPREEQYNSTYRVVSVLTVLHQDWLNGKEYKCKVSNKALPAPIEKTISKAKGQPREPQVYTLPPSREEMTKNQVSLTCLVKGFYPSDIAVEWESNGQPENNYKTTPPVLDSDGSFFLYSRLTVDKSRWQQGNVFSCSVMHEALHNHYTQKSLSLSPGK
light 2: QSVLTQPPSVSAAPGQKVTISCSGSSSNIGINYVSWYQQLPGTAPKLLIYDNNKRPSGIPDRFSGSKSGTSATLGITGLQTGDEADYYCGTWDSSLSAVVFGGGTKLTVLGQPKAAPSVTLFPPSSEELQANKATLVCLISDFYPGAVTVAWKADSSPVKAGVETTTPSKQSNNKYAASSYLSLTPEQWKSHRSYSCQVTHEGSTVEKTVAPTECS
B3: PSMB937 (bispecific antibody, human IgG1, lambda, L234A L235A)
heavy 1: QVQLQQSGPGLVKPSQTLSLTCAISGDSVFNNNAAWSWIRQSPSRGLEWLGRTYYRSKWLYDYAVSVKSRITINPDTSKNQFSLQLNSVTPEDTAVYYCARGYSSSFDYWGQGTLVTVSSASTKGPSVFPLAPSSKSTSGGTAALGCLVKDYFPEPVTVSWNSGALTSGVHTFPAVLQSSGLYSLSSVVTVPSSSLGTQTYICNVNHKPSNTKVDKKVEPKSCDKTHTCPPCPAPEAAGGPSVFLFPPKPKDTLMISRTPEVTCVVVSVSHEDPEVKFNWYVDGVEVHNAKTKPREEQYNSTYRVVSVLTVLHQDWLNGKEYKCKVSNKALPAPIEKTISKAKGQPREPQVYTLPPSREEMTKNQVSLTCLVKGFYPSDIAVEWESNGQPENNYKTTPPVLDSDGSFLLYSKLTVDKSRWQQGNVFSCSVMHEALHNHYTQKSLSLSPG
light 1: QSALTQPASVSGSPGQSITISCTGTSSNIGTYKFVSWYQQHPGKAPKVMIYEVSKRPSGVSNRFSGSKSGNTASLTISGLQAEDEADYYCVSYAGSGTLLFGGGTKLTVLGQPKAAPSVTLFPPSSEELQANKATLVCLISDFYPGAVTVAWKADSSPVKAGVETTTPSKQSNNKYAASSYLSLTPEQWKSHRSYSCQVTHEGSTVEKTVAPTECS
heavy 2: EVQLVESGGGLVQPGGSLRLSCAASGFTFSSYAMSWVRQAPGKGLEWVSAISGGSGSTYYADSVKGRFTISRDNSKNTLYLQMNSLRAEDSAVYYCAKDGVGATPYYFDYWGQGTLVTVSSASTKGPSVFPLAPSSKSTSGGTAALGCLVKDYFPEPVTVSWNSGALTSGVHTFPAVLQSSGLYSLSSVVTVPSSSLGTQTYICNVNHKPSNTKVDKKVEPKSCDKTHTCPPCPAPEAAGGPSVFLFPPKPKDTLMISRTPEVTCVVVSVSHEDPEVKFNWYVDGVEVHNAKTKPREEQYNSTYRVVSVLTVLHQDWLNGKEYKCKVSNKALPAPIEKTISKAKGQPREPQVYTLPPSREEMTKNQVSLTCLVKGFYPSDIAVEWESNGQPENNYKTTPPVLDSDGSFFLYSRLTVDKSRWQQGNVFSCSVMHEALHNHYTQKSLSLSPG
light 2: QSVLTQPPSVSAAPGQKVTISCSGSSSNIGNNYVSWYQQLPGTAPKLLIYDNNKRPSGIPDRFSGSKSGTSATLGITGLQTGDEADYYCGTWDSSLSAYVFGTGTKVTVLGQPKAAPSVTLFPPSSEELQANKATLVCLISDFYPGAVTVAWKADSSPVKAGVETTTPSKQSNNKYAASSYLSLTPEQWKSHRSYSCQVTHEGSTVEKTVAPTECS

Biological target: Human PSMA on prostate cancer cell lines (C4-2B, 22RV1) (human, UniProt Q04609 1-750)
Assay: cell-based or functional assay

Chain of Human PSMA on prostate cancer cell lines (C4-2B, 22RV1) (Q04609 whole entry): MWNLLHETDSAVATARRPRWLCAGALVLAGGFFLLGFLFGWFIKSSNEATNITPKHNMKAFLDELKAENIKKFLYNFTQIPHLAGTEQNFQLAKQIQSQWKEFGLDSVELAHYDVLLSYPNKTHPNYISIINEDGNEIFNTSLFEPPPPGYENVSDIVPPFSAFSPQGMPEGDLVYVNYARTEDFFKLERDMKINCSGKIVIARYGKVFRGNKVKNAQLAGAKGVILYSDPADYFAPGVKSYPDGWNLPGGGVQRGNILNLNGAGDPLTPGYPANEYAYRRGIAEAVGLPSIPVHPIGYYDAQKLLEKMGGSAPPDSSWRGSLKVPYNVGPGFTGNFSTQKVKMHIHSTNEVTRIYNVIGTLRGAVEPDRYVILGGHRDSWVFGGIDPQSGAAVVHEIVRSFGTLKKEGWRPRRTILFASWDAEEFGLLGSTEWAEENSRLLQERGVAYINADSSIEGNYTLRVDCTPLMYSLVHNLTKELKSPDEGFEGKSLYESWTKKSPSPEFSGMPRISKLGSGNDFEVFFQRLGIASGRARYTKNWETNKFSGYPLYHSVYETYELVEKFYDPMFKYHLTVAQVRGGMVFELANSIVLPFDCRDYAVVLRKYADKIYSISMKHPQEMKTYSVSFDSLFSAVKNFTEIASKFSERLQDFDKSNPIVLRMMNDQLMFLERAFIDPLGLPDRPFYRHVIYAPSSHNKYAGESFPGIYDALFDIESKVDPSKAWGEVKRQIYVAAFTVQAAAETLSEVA

Row | Binder | Cytotoxicity (C4-2B cells, 3:1 E:T ratio, 5 Day) at 3.3 nM | Cytotoxicity (C4-2B cells, 3:1 E:T ratio, 5 Day) at 10 nM | Cytotoxicity (C4-2B cells, 3:1 E:T ratio, 5 Day) at 30 nM | Cytotoxicity (C4-2B cells, 3:1 E:T ratio, 5 Day) at 0.3 nM | Cytotoxicity (C4-2B cells, 3:1 E:T ratio, 5 Day) at 1.1 nM
1 | B1 | 30% | 72% | 84% | – | –
2 | B2 | 96% | 95% | 94% | 92% | 97%
3 | B3 | – | – | 41% | – | –

Reference: US20240059789A1 (Janssen / Centocor, published 2024)
